Measurements: patent US5849493

Target: STF-1 / Pbx complex C2 of Tu-6 nuclear extract (UniProt P52947+P40424)
Test: EMSA
Settings: off-rate with 1000-fold unlabeled TSEII, room temperature; C2 supershift/block by STF-1 and Pbx antisera

Chain of STF-1 / Pbx complex C2 of Tu-6 nuclear extract (P52947 whole entry, chain 1 of 2): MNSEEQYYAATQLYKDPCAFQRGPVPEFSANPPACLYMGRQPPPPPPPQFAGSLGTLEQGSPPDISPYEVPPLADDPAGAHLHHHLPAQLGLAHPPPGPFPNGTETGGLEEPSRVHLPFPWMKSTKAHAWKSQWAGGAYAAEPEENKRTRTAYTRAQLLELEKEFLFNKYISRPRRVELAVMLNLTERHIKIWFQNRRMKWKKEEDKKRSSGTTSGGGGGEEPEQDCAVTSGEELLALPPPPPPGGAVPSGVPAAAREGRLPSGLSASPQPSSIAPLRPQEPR
Chain of STF-1 / Pbx complex C2 of Tu-6 nuclear extract (P40424 whole entry, chain 2 of 2): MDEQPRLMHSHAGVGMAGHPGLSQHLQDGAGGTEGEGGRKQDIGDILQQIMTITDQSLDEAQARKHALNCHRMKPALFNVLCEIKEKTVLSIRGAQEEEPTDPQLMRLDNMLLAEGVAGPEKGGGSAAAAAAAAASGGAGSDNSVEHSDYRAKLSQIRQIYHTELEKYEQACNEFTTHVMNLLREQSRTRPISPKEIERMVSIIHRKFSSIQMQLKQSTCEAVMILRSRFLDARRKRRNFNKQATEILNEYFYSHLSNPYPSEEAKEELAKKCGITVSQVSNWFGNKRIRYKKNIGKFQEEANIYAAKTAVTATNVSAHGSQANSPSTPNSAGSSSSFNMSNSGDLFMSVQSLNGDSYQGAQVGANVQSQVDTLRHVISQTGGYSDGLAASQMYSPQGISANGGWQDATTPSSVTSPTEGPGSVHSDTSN

GATCTCAGTAATTAATCATGCA / AGTCATTAATTAGTACGTCATG [somatostatin TSEII]
koff (min (half-life)): 15
